Reference: the supplement of paper PMC7877785
± gives the uncertainty stated by the source.

Test: self-splicing fitness, log relative to wild type (ln ratio); higher = more splicing; Tetrahymena group I intron in knt gene, E. coli kanamycin selection, DiMSum; sequences stand for … in CUCUCU…GGAGGGAAAAGUUAUCAGGCAUGCACCUGGUAGCUAGUCUUUAAACCAAUAGAUUGCAUCGGUUUAAAAGGCAAGACCGUCAAAUUGCGGGAAAGGGGUCAACAGCCGUUCAGUACCAAGUCUCAGGGGAAACUUUGAGAUGGCCUUGCAAAGGGUAUGGUAAUAAGCUGACGGACAUGGUCCUAACCACGCAGCCAAGUCCUAAGUCAACAGAUCUUCUGUUGAUAUGGAUGCAGUUCACAGACUAAAUGUCGGUCGGGGAAGAUGUAUUCUUCUCAUAAGAUAUAGUCGGACCUCUCCUUAAUGGGAGCUAGCGGAUGAAGUGAUGCAACACUGGAGCCGCUGGGAACUAAUUUGUAUGCGAAAGUAUAUUGAUUAGUUUUGGAGUACUCGUGGUCG
Outline: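 Colonies from six replicate transformations of E. coli BL21(DE3) were pooled and amplicon-sequenced on an Illumina HiSeq 2500. The library placed an intron with all eight P1ex-region nucleotides randomised inside the knt kanamycin-resistance gene on pET-22b(+), and cells grew overnight at 37°C or 30°C on LB agar with or without 25 μg/mL kanamycin (plus 100 μg/mL carbenicillin, 50 μM IPTG, 0.2% rhamnose). Fitness is the DiMSum error-weighted combination of wild-type-normalised replicate fold changes, kanamycin versus none.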

Sequence | self-splicing fitness (ln) (30 °C) | self-splicing fitness (ln) (37 °C)
UUCAAGCAAUAUUACGGUCU | -2.89 ± 0.16 | -1.97 ± 0.16
UUCAAGCAAUAUUACGGUUA | -0.0762 ± 0.097 | 0.272 ± 0.086
UUCAAGCAAUAUUACGUCGA | -0.383 ± 0.078 | -0.0975 ± 0.087
UUCAAGCAAUAUUACGUGCG | -1.48 ± 0.092 | -0.425 ± 0.088
UUCAAGCAAUAUUACGUGGU | -4.01 ± 0.2 | -2.7 ± 0.17
UUCAAGCAAUAUUACGUUAA | -1.59 ± 0.11 | -1.47 ± 0.12
UUCAAGCAAUAUUACGUUAC | -3.73 ± 0.36 | -2.72 ± 0.23
UUCAAGCAAUAUUACGUUCU | -2.22 ± 0.14 | -2.14 ± 0.17
UUCAAGCAAUAUUACGUUUU | -3.78 ± 0.17 | -2.65 ± 0.16
UUCCAGCAAUAUUACGAAAG | -2.6 ± 0.27 | -2.33 ± 0.27
UUCCAGCAAUAUUACGAACG | -2.22 ± 0.16 | -0.164 ± 0.15
UUCCAGCAAUAUUACGAGGA | -1.83 ± 0.19 | -0.64 ± 0.22
UUCCAGCAAUAUUACGCAGG | -3.53 ± 0.23 | -2.57 ± 0.36
UUCCAGCAAUAUUACGCAUG | -3.41 ± 0.25 | -1.7 ± 0.16
UUCCAGCAAUAUUACGCAUU | -3.09 ± 0.17 | -0.682 ± 0.11
UUCCAGCAAUAUUACGCCCA | -1.38 ± 0.18 | -0.115 ± 0.17
UUCCAGCAAUAUUACGCCGU | -2.53 ± 0.16 | -1.43 ± 0.23
UUCCAGCAAUAUUACGCGGU | -3.42 ± 0.18 | -2.54 ± 0.2
UUCCAGCAAUAUUACGCUUU | -3.23 ± 0.23 | -0.119 ± 0.12
UUCCAGCAAUAUUACGGAGC | -4.31 ± 0.31 | -2.99 ± 0.47

Sequence | self-splicing fitness (ln) (30 °C) | self-splicing fitness (ln) (37 °C)
UUCCAGCAAUAUUACGGCGG | -3.09 ± 0.17 | -2.72 ± 0.27
UUCCAGCAAUAUUACGGGUA | -0.292 ± 0.08 | 0.0398 ± 0.088
UUCCAGCAAUAUUACGGUCC | -1.79 ± 0.15 | -2.18 ± 0.17
UUCCAGCAAUAUUACGUCCU | -2.67 ± 0.21 | -2.29 ± 0.32
UUCCAGCAAUAUUACGUCUA | -0.638 ± 0.082 | 0.0519 ± 0.093
UUCCAGCAAUAUUACGUCUC | -3.17 ± 0.23 | -1.83 ± 0.2
UUCCAGCAAUAUUACGUGAC | -2.56 ± 0.2 | -1.89 ± 0.21
UUCCAGCAAUAUUACGUUCU | – | -3.34 ± 0.31
UUCCAGCAAUAUUACGUUUC | -3.24 ± 0.23 | -2.17 ± 0.21
UUCGAGCAAUAUUACGAAGG | -2.09 ± 0.23 | -1.62 ± 0.27
UUCGAGCAAUAUUACGAAUA | – | -1.26 ± 0.3
UUCGAGCAAUAUUACGACGU | -3.55 ± 0.24 | -1.85 ± 0.14
UUCGAGCAAUAUUACGACUU | -3.32 ± 0.29 | -1.49 ± 0.29
UUCGAGCAAUAUUACGAGAA | – | -0.969 ± 0.32
UUCGAGCAAUAUUACGAGGC | -2.45 ± 0.29 | -2.98 ± 0.3
UUCGAGCAAUAUUACGAUCU | -2.66 ± 0.19 | -1.83 ± 0.23
UUCGAGCAAUAUUACGAUUA | -1.39 ± 0.26 | -0.875 ± 0.25
UUCGAGCAAUAUUACGCACU | – | -1.76 ± 0.38
UUCGAGCAAUAUUACGCAUA | -3.18 ± 0.42 | -1.39 ± 0.26
